# ± gives the half width of the 95% confidence interval.
# Assay: folding stability dG unfold from trypsin proteolysis; higher = more stable
# Protocol: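 Folding stability of de novo designed mini-proteins (<80 aa, no Cys; designed by TrROS, TrMRF, ProteinMPNN and the joint model) was measured by cDNA display proteolysis with trypsin and chymotrypsin. Each protease was used at 11 concentrations in a threefold dilution series plus a no-protease condition. K50 was inferred by Bayesian fitting of sequencing counts, and dG unfold was derived against a sequence-predicted unfolded-state K50 (Tsuboyama et al. method). Sequences shown include variable-length N-terminal GS-type padding (SAGGSAGG...) inside a display construct carrying a PA tag. Rows were kept only if the AF2 dimer inter-PAE was >15, to exclude likely homo-oligomers.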
row,Sequence,folding stability dG unfold
1,SAGGSAKPVEVELPDGIEIYYPKDRMYIEINLPNGRPIKIPFEFDDPNDPERALDKARDLVKKLPWSAGGSA [r15_748_TrROS],-0.577 ± 0.41 kcal/mol
2,SVVNFPVSLAATRDGNPVPIEEVLERVAKEIGGPDVKPEIKPGPGDTLVATVKLPDGTTATASDSSSVTDAS [r1_168_JUSTAS],-0.293 ± 0.11 kcal/mol
3,SAGGSAGGSAGPKWKQITIPMEPGQSVNEIADEIKDELGPGKRVHVSMHENGWMTIYVRKSAGGSAGGSAGG [r17_20_TrROS],-0.484 ± 0.23 kcal/mol
4,SAGGSAGGLVIRNPDTNELIELKPGEELTITVTVEAPPAEEETTTETETRTLTLTVRLPEEAEESAGGSAGG [r6_273_TrROS_Hall],0.156 ± 0.16 kcal/mol
5,SAGGSAGGGLSASDTVTFPDGTVVTVAPDATVTITVPAPPDAAGNLTSTVTRTVTVAPGTRVLLSAGGSAGG [r6_90_JUSTAS],-0.907 ± 0.41 kcal/mol
6,SAGGSAGGSSSVMTVTVEYPTPAPPVVRRETVEVPDPDGSLSEEELKEKYSPPDAVVTEVVRESAGGSAGGS [r12_611_JUSTAS],-1.07 ± 0.34 kcal/mol
7,SAGGSAGGSAGMILTEEVTVAVPTLSTADGTRHTTTVPELVVVELKLPPVPPEAVEKLLASAGGSAGGSAGG [r11_318_JUSTAS],-0.0441 ± 0.019 kcal/mol
8,SAGGTTTESVSEDSTDNGEYVTTTTTTDPVGPSTVVTTTTTTTPADGTTTTTTTTYTVPPGAPASAVVSAGG [r13_3_JUSTAS],0.354 ± 0.052 kcal/mol
9,MKKTIPFPPSHPDLSPEEVAERLRERFLSPEESITVTTDPATGTTTVTATRGNVTTVATLSPAGTVTVTGAS [r1_131_JUSTAS],-0.0831 ± 0.14 kcal/mol
10,SAGGKPDIKDIEIDDVEYDPNEGYFRYEVEIKWPGGKERPIEVPMKYEDGRMTPEDIRKMAKKLIKNSAGGS [r16_221_TrROS],0.423 ± 0.15 kcal/mol
11,SAGGSAGGSGEEIIKKIAESLIPGHPNLKPDKITYDPKTGKITIKTKNPKAAKLLKELDLIKPSAGGSAGGS [r12_623_TrMRF],-0.446 ± 0.28 kcal/mol
12,SMSPSETETTTYTRTIPFPKSNPEQAKAEAEKEVRAELEAKGLKIDIPITIEWENDTVTVTIPISVTPPLSA [r9_889_JUSTAS],0.594 ± 0.13 kcal/mol
13,SAGGPVVLKIEIEQKTDGKPQERELVIPVKWDPNGQVDADEIKDWVEEALPPGYKIEDIDVVPPGQPFSAGG [r13_504_TrROS],-0.594 ± 0.22 kcal/mol
14,SAGGSAVPKSDPVIRIKVKYPSNPQVITVPRSEIVEMEVGPPENIMTIKNPKTGKEYPATLLEILASAGGSA [r15_495_JUSTAS],-0.531 ± 0.23 kcal/mol
15,SAGGSAGGSAGGVPEEEIRERVEAAGLTAPDAEVVYETPENITVRVTVPPTGLVFERLESAGGSAGGSAGGS [r10_604_JUSTAS],0.0893 ± 0.048 kcal/mol
16,SAGGSAGGSAEVEIKVRPDDPIPPNLPIVLPDGKERDARVEAVLDPEDGTPVFKVYFDPRSDSAGGSAGGSA [r18_476_TrMRF],0.771 ± 0.048 kcal/mol
17,SAGGGSMVNISKEELAKKIAKELGKDFPTENVKVKKEIYPEPVSIYTITIKVPGTNITLNVPITLPESAGGS [r16_42_JUSTAS],-0.043 ± 0.098 kcal/mol
18,SAGPGNWFIMIFINIEIKLETVPDPDGKPWLKITISIKFFVMIVRLPPDGKARMEMFPITIKFTFTIPLSAG [r5_428_TrROS],4.17 ± 0.29 kcal/mol
19,SAGMVVKVTVITEDEKPIEVYLPVKDPEKYPPEKVEEAAKEIAKKLEEEGIPVKKVSVEPIAPKPGLLSAGG [r19_334_TrMRF],0.544 ± 0.087 kcal/mol
20,SAGGSAGGSAGGPMSNVVEEVVSVEVTNPGLPDSRFVTNPEPGVPLPVPRTVPVVIVLRASAGGSAGGSAGG [r11_257_JUSTAS],-0.602 ± 0.33 kcal/mol

# Assay: folding stability dG unfold (combined trypsin and chymotrypsin); higher = more stable
# Method in brief: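 Unfolding free energy was derived, per protease or combined, by relating Bayesian-fitted K50 values from sequencing counts to a sequence-predicted unfolded-state K50 and a shared folded-state K50. The underlying digests exposed cysteine-free mini-proteins under 80 residues, in a PA-tagged cDNA display construct, to trypsin and chymotrypsin at 11 threefold-diluted concentrations and to a no-protease condition. A filter kept only designs with AlphaFold2 dimer inter-PAE above 15.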
row,Sequence,folding stability dG unfold
1,SAGGSAKPVEVELPDGIEIYYPKDRMYIEINLPNGRPIKIPFEFDDPNDPERALDKARDLVKKLPWSAGGSA [r15_748_TrROS],< -1 kcal/mol
2,SVVNFPVSLAATRDGNPVPIEEVLERVAKEIGGPDVKPEIKPGPGDTLVATVKLPDGTTATASDSSSVTDAS [r1_168_JUSTAS],< -1 kcal/mol
3,SAGGSAGGSAGPKWKQITIPMEPGQSVNEIADEIKDELGPGKRVHVSMHENGWMTIYVRKSAGGSAGGSAGG [r17_20_TrROS],< -1 kcal/mol
4,SAGGSAGGLVIRNPDTNELIELKPGEELTITVTVEAPPAEEETTTETETRTLTLTVRLPEEAEESAGGSAGG [r6_273_TrROS_Hall],-0.0133 ± 0.21 kcal/mol
5,SAGGSAGGGLSASDTVTFPDGTVVTVAPDATVTITVPAPPDAAGNLTSTVTRTVTVAPGTRVLLSAGGSAGG [r6_90_JUSTAS],< -1 kcal/mol
6,SAGGSAGGSSSVMTVTVEYPTPAPPVVRRETVEVPDPDGSLSEEELKEKYSPPDAVVTEVVRESAGGSAGGS [r12_611_JUSTAS],< -1 kcal/mol
7,SAGGSAGGSAGMILTEEVTVAVPTLSTADGTRHTTTVPELVVVELKLPPVPPEAVEKLLASAGGSAGGSAGG [r11_318_JUSTAS],-0.887 ± 0.16 kcal/mol
8,SAGGTTTESVSEDSTDNGEYVTTTTTTDPVGPSTVVTTTTTTTPADGTTTTTTTTYTVPPGAPASAVVSAGG [r13_3_JUSTAS],-0.00338 ± 0.16 kcal/mol
9,MKKTIPFPPSHPDLSPEEVAERLRERFLSPEESITVTTDPATGTTTVTATRGNVTTVATLSPAGTVTVTGAS [r1_131_JUSTAS],< -1 kcal/mol
10,SAGGKPDIKDIEIDDVEYDPNEGYFRYEVEIKWPGGKERPIEVPMKYEDGRMTPEDIRKMAKKLIKNSAGGS [r16_221_TrROS],< -1 kcal/mol
11,SAGGSAGGSGEEIIKKIAESLIPGHPNLKPDKITYDPKTGKITIKTKNPKAAKLLKELDLIKPSAGGSAGGS [r12_623_TrMRF],< -1 kcal/mol
12,SMSPSETETTTYTRTIPFPKSNPEQAKAEAEKEVRAELEAKGLKIDIPITIEWENDTVTVTIPISVTPPLSA [r9_889_JUSTAS],-0.144 ± 0.29 kcal/mol
13,SAGGPVVLKIEIEQKTDGKPQERELVIPVKWDPNGQVDADEIKDWVEEALPPGYKIEDIDVVPPGQPFSAGG [r13_504_TrROS],< -1 kcal/mol
14,SAGGSAVPKSDPVIRIKVKYPSNPQVITVPRSEIVEMEVGPPENIMTIKNPKTGKEYPATLLEILASAGGSA [r15_495_JUSTAS],< -1 kcal/mol
15,SAGGSAGGSAGGVPEEEIRERVEAAGLTAPDAEVVYETPENITVRVTVPPTGLVFERLESAGGSAGGSAGGS [r10_604_JUSTAS],-0.367 ± 0.1 kcal/mol
16,SAGGSAGGSAEVEIKVRPDDPIPPNLPIVLPDGKERDARVEAVLDPEDGTPVFKVYFDPRSDSAGGSAGGSA [r18_476_TrMRF],0.0528 ± 0.29 kcal/mol
17,SAGGGSMVNISKEELAKKIAKELGKDFPTENVKVKKEIYPEPVSIYTITIKVPGTNITLNVPITLPESAGGS [r16_42_JUSTAS],-0.226 ± 0.22 kcal/mol
18,SAGPGNWFIMIFINIEIKLETVPDPDGKPWLKITISIKFFVMIVRLPPDGKARMEMFPITIKFTFTIPLSAG [r5_428_TrROS],> 6 kcal/mol
19,SAGMVVKVTVITEDEKPIEVYLPVKDPEKYPPEKVEEAAKEIAKKLEEEGIPVKKVSVEPIAPKPGLLSAGG [r19_334_TrMRF],0.0993 ± 0.4 kcal/mol
20,SAGGSAGGSAGGPMSNVVEEVVSVEVTNPGLPDSRFVTNPEPGVPLPVPRTVPVVIVLRASAGGSAGGSAGG [r11_257_JUSTAS],< -1 kcal/mol

# — the supplement of paper PMC12764529
